T1: recombinant purified human IL-12 p70 (human, UniProt P29459 23-219)
T1 construct: Disulfide-linked heterodimer of p35 and p40; also called hIL-12; Hu IL-12
T1 sequence 1: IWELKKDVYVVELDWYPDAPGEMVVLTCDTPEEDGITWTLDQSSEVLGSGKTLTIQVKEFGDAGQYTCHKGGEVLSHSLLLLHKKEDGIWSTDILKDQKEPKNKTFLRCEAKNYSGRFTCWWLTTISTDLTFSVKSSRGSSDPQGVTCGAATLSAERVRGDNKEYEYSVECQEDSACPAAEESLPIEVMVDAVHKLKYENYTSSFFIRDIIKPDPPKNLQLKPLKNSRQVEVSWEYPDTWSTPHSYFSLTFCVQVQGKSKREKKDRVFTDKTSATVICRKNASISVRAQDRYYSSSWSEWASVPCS
T1 sequence 2: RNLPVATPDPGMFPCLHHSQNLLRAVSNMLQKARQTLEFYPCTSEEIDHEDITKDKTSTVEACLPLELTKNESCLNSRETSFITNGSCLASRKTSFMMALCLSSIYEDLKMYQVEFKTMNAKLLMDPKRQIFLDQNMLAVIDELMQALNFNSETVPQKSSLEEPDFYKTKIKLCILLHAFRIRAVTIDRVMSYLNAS


Tests used:
[1] = target: T1, recombinant purified human IL-12 p70; test: SPR (Biacore) according to Example 1.1.B
Method: The BIACORE assay (Biacore, Inc, Piscataway, N.J.) determines the affinity of antibodies with kinetic measurements of on-, off-rate constants. Binding of antibodies to recombinant purified human IL-12 p70 or recombinant purified human IL-12 p40 were determined by surface plasmon resonance-based measurements with a Biacore® 3000 instrument (Biacore® AB, Uppsala, Sweden) using running HBS-EP (10 mM HEPES [pH 7.4], 150 mM NaCl, 3 mM EDTA, and 0.005% surfactant P20) at 25° C. All chemicals were obtained from Biacore® AB (Uppsala, Sweden) or otherwise from a different source as described in the text. Approximately 5000 RU of goat anti-mouse IgG, (Fcγ), fragment specific polyclonal antibody (Pierce Biotechnology Inc, Rockford, Ill.) diluted in 10 mM sodium acetate (pH 4.5) was directly immobilized across a CM5 research grade biosensor chip using a standard amine coupling kit according to manufacturer's instructions and procedures at 25 μg/ml. Unreacted moieties on the biosensor surface were blocked with ethanolamine. Modified carboxymethyl dextran surface in flowcell 2 and 4 was used as a reaction surface. Unmodified carboxymethyl dextran without goat anti-mouse IgG in flow cell 1 and 3 was used as the reference surface. For kinetic analysis, rate equations derived from the 1:1 Langmuir binding model were fitted simultaneously to association and dissociation phases of all eight injections (using global fit analysis) with the use of Biaevaluation 4.0.1 software. Purified antibodies were diluted in HEPES-buffered saline for capture across goat anti-mouse IgG specific reaction surfaces. Mouse antibodies to be captured as a ligand (25 μg/ml) were injected over reaction matrices at a flow rate of 5 μl/min. The association and dissociation rate constants, kₒₙ (unit M⁻¹ s⁻¹) and koff (unit s⁻¹) were determined under a continuous flow rate of 25 μl/min. Rate constants were derived by making kinetic binding measurements at ten different antigen concentrations ranging from 10-200 nM. The equilibrium dissociation constant (unit M) of the reaction between mouse antibodies and recombinant purified human IL-12 p70 or recombinant purified human IL-12 p40 was then calculated from the kinetic rate constants by the following formula: KD=koff/kₒₙ. Binding is recorded as a function of time and kinetic rate constants are calculated.

[2] = target: T1, recombinant purified human IL-12 p70; test: cell-based or functional assay
[3] = target: T1, recombinant purified human IL-12 p70; test: competition ELISA on coated human IL-12, competitor of 0.8 µg/ml biotinylated 8E1, Expt. 3
Method: (§1) MaxiSorp ELISA plates (Nalge Nunc International) were coated overnight at 4° C. with 100 μl/well of 1.0 μg/ml human IL-12 in 0.2 M sodium carbonate-bicarbonate buffer, pH 9.4, washed with Wash Buffer (PBS containing 0.1% Tween 20), and blocked for 1 hr at room temperature with 300 μl/well of SuperBlock Blocking Buffer in TBS (Pierce Chemical Company). […] As isotype controls, 100 μl/well of 100 μg/ml mouse IgG 1/κ (MuFd79) or humanized IgG1/κ (HuFd79) monoclonal antibodies in ELISA buffer was used. As a no-competitor control, 100 μl/well of ELISA Buffer was used. After incubating the plates for 1 hr at room temperature, and washing with Wash Buffer, bound antibodies were detected using 100 μl/well of 1 μg/ml HRP-conjugated streptavidin (Pierce Chemical Company) in ELISA buffer. After incubating for 1 hr at room temperature, and washing with Wash Buffer, color development was performed by adding 100 μl/well of ABTS Peroxidase Substrate/Peroxidase Solution B (KPL, Inc.). After incubating for 5 min at room temperature, color development was stopped by adding 50 μl/well of 2% oxalic acid. Absorbance was read at 415 nm.
(§2) The affinity of 8E1.4, 8E1.5 and 8E1.6 to human IL-12 was analyzed by competition ELISA as described above.

[4] = target: T1, recombinant purified human IL-12 p70; test: competition ELISA on coated human IL-12, competitor of 0.8 µg/ml biotinylated 8E1, Expt. 1
Method: as §1, §2

[5] = target: T1, recombinant purified human IL-12 p70; test: competition ELISA on coated human IL-12, competitor of 0.8 µg/ml biotinylated 8E1, average
Method: as §1, §2

[6] = target: T1, recombinant purified human IL-12 p70; test: competition ELISA on coated human IL-12, competitor of 0.8 µg/ml biotinylated 8E1, Expt. 2
Method: MaxiSorp ELISA plates (Nalge Nunc International) were coated overnight at 4° C. with 100 μl/well of 1.0 μg/ml human IL-12 in 0.2 M sodium carbonate-bicarbonate buffer, pH 9.4, washed with Wash Buffer (PBS containing 0.1% Tween 20), and blocked for 1 hr at room temperature with 300 μl/well of SuperBlock Blocking Buffer in TBS (Pierce Chemical Company). After washing with Wash Buffer, a mixture of biotinylated 8E 1 ([…] final concentration) and competitor antibody (8E1 or 8E1.4 or 8E1.5 or 8E1.6) starting at 100 μg/ml final concentration and serially diluted 3-fold) in 100 μl/well of ELISA buffer was added in duplicate. As isotype controls, 100 μl/well of 100 μg/ml mouse IgG 1/κ (MuFd79) or humanized IgG1/κ (HuFd79) monoclonal antibodies in ELISA buffer was used. As a no-competitor control, 100 μl/well of ELISA Buffer was used. After incubating the plates for 1 hr at room temperature, and washing with Wash Buffer, bound antibodies were detected using 100 μl/well of 1 μg/ml HRP-conjugated streptavidin (Pierce Chemical Company) in ELISA buffer. After incubating for 1 hr at room temperature, and washing with Wash Buffer, color development was performed by adding 100 μl/well of ABTS Peroxidase Substrate/Peroxidase Solution B (KPL, Inc.). […] Absorbance was read at 415 nm.
as §2

| Kd [1] [nM] | koff [1] [s⁻¹] | kon [1] [M⁻¹ s⁻¹] | Av. IC50 (nM) huIL-12, PHA blast assay [2] [nM] | IC50 [3] [µg/mL] | IC50 [4] [µg/mL] | IC50 [5] [µg/mL] | IC50 [6] [µg/mL] | Binder |
| --- | --- | --- | --- | --- | --- | --- | --- | --- |
| 0.4 | 0.0003 | 740000 | 0.088 | – | – | – | – | additional humanized anti-IL-12 antibody 1A6.12 (antibody, human IgG1, V domains shown, Only variable domains tied to it) VH: EVTLRESGPGLVKPTQTLTLTCTLYGFSLSTSGMGVSWIRQPPGKGLEWLAHIWWDGDNYYNPSLKSQLTISKDTSKNQVVLKLTSVDPVDTATYYCARRTRVNYAMDYWGQGTLVTVSS VL: DIQMTQSPSSLSASVGDRVTITCKASQSVSNDVAWFQQKPGKAPKLLIYYASNRYTGVPDRFSGSGYGTDFTFTISSLQPEDIATYYCQQDYNSPWTFGGGTKVEIKR |
| 1.3 | 0.001 | 800000 | 12 | 8.33 | – | – | – | additional humanized anti-IL-12 antibody 8E1.4 (antibody, IgG1, V domains shown, IgG1/kappa) VH: EVQLVESGGGLVQPGGSLRLSCAASGFTFSDYGMVWVRQAPGKGLEWVASISSGSSNIYYADTVKGRFTISRDNAKNTLYLQMNSLRAEDTAVYYCARNPYWGQGTLVTVSS VL: DIQMTQSPSSLSASVGDRVTITCKASQNVGTNVAWYQQKPGKAPKGLIYSASHRYSGVPSRFSGSGSGTDFTLTISSLQPEDFATYYCQQYNSYPLTFGGGTKVEIKR |
| 0.046 | 8e-05 | 1.7e+06 | – | 1.61 | 2.25 | 2.1 | 2.43 | additional humanized anti-IL-12 antibody 8E1.6 (antibody, V domains shown, IgG1/kappa, expressed in 293T/17 cells from pVg1.D.Tt (D356E L358M, L234A L235A) and pVk) VH: EVQLVESGGGLVQPGGSLRLSCAASGFTFSDYGMVWVRQAPGKGLEWVASISSGSSNIYYADTVKGRFTISRDDAKNTLYLQMNSLRAEDTAVYYCARNPYWGQGTLVTVSS VL: DIQMTQSPSSLSASVGDRVTITCKASQNVGTNVAWYQQKPGKAPKGLIYSASHRYSGVPSRFSGSGSGTDFTLTISSLQPEDFATYYCQQYNSYPLTFGGGTKVEIKR |
| 0.75 | 0.00124 | 1.6e+06 | 8 | 13.4 | – | – | – | additional humanized anti-IL-12 antibody 8E1.5 (antibody, IgG1, V domains shown, IgG1/kappa) VH: EVQLVESGGGLVQPGGSLRLSCAASGFTFSDYGMVWVRQAPGKGLEWVASISSGSSNIYYADTVKGRFTISRDNAKNTLYLQMNSLRAEDTAVYYCARNPYWGQGTLVTVSS VL: DIQMTQSPSSLSASVGDRVTITCKASQNVGTNVAWYQQKPGKAPKGLIYSASHRYSGVPDRFSGSGSGTDFTLTISSLQPEDFATYYCQQYNSYPLTFGGGTKVEIKR |
